Key:
[1] = molecular target: Recombinant human FcRn (FcRn alpha and beta2-microglobulin) (human, UniProt P55899 24-290; P61769 21-119); assay: SPR; produced in HEK
[2] = molecular target: Recombinant human CD16aV (V polymorphism at position 158 of CD16) (human, UniProt P08637 17-208); assay: SPR; produced in HEK
Chain of Recombinant human CD16aV (V polymorphism at position 158 of CD16) (P08637 17-208 F176V): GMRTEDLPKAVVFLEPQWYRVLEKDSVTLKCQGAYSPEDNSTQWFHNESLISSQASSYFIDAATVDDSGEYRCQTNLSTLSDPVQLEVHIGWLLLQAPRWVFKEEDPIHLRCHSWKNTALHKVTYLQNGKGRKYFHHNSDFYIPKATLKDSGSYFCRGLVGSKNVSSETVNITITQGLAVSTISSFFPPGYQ

Chain of Recombinant human FcRn (FcRn alpha and beta2-microglobulin) (P55899 24-290, chain 1 of 2): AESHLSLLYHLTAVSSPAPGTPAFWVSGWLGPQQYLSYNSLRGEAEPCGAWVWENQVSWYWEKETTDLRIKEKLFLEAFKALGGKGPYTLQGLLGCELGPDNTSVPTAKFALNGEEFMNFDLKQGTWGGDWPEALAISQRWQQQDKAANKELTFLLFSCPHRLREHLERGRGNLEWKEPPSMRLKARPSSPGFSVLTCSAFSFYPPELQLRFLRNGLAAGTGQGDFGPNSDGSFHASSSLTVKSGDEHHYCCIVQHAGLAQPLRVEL
Chain of Recombinant human FcRn (FcRn alpha and beta2-microglobulin) (P61769 21-119, chain 2 of 2): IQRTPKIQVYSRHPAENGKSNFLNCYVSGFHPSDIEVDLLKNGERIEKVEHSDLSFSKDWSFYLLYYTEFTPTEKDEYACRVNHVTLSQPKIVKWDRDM

Row | Binder | Kd [1] [nM] | Kd [2] [nM]
1 | A3A-184A (K334N/P352S/A378V/V397M) Fc fragment (other) DKTHTCPPCPAPELLGGPSVFLFPPKPKDTLMISRTPEVTCVVVDVSHEDPEVKFNWYVDGVEVHNAKTKPREEQYNSTYRVVSVLTVLHQDWLNGKEYKCKVSNKALPAPIENTISKAKGQPREPQVYTLSPSRDELTKNQVSLTCLVKGFYPSDIVVEWESNGQPENNYKTTPPMLDSDGSFFLYSKLTVDKSRWQQGNVFSCSVMHEALHNHYTQKSLSLSPGK | 11.7 | 228
2 | T5A-74I (T260A/N315D/A330V/N361D/A378V/N434Y) Fc fragment (other) DKTHTCPPCPAPELLGGPSVFLFPPKPKDTLMISRTPEVACVVVDVSHEDPEVKFNWYVDGVEVHNAKTKPREEQYNSTYRVVSVLTVLHQDWLDGKEYKCKVSNKALPVPIEKTISKAKGQPREPQVYTLPPSRDELTKDQVSLTCLVKGFYPSDIVVEWESNGQPENNYKTTPPVLDSDGSFFLYSKLTVDKSRWQQGNVFSCSVMHEALHYHYTQKSLSLSPGK | 32.5 | 3510
3 | T5A-74M (Y296W/N315D/A330V/N361D/A378V/N434Y) Fc fragment (other) DKTHTCPPCPAPELLGGPSVFLFPPKPKDTLMISRTPEVTCVVVDVSHEDPEVKFNWYVDGVEVHNAKTKPREEQWNSTYRVVSVLTVLHQDWLDGKEYKCKVSNKALPVPIEKTISKAKGQPREPQVYTLPPSRDELTKDQVSLTCLVKGFYPSDIVVEWESNGQPENNYKTTPPVLDSDGSFFLYSKLTVDKSRWQQGNVFSCSVMHEALHYHYTQKSLSLSPGK | 27.3 | 308
4 | T5A-74L (E294A/N315D/A330V/N361D/A378V/N434Y) Fc fragment (other) DKTHTCPPCPAPELLGGPSVFLFPPKPKDTLMISRTPEVTCVVVDVSHEDPEVKFNWYVDGVEVHNAKTKPREAQYNSTYRVVSVLTVLHQDWLDGKEYKCKVSNKALPVPIEKTISKAKGQPREPQVYTLPPSRDELTKDQVSLTCLVKGFYPSDIVVEWESNGQPENNYKTTPPVLDSDGSFFLYSKLTVDKSRWQQGNVFSCSVMHEALHYHYTQKSLSLSPGK | 37.9 | 4400
5 | J3B-118A (A378V/P396L/N421T) Fc fragment (other) DKTHTCPPCPAPELLGGPSVFLFPPKPKDTLMISRTPEVTCVVVDVSHEDPEVKFNWYVDGVEVHNAKTKPREEQYNSTYRVVSVLTVLHQDWLNGKEYKCKVSNKALPAPIEKTISKAKGQPREPQVYTLPPSRDELTKNQVSLTCLVKGFYPSDIVVEWESNGQPENNYKTTPLVLDSDGSFFLYSKLTVDKSRWQQGTVFSCSVMHEALHNHYTQKSLSLSPGK |  | 1840
6 | T5A-74J (E258I/N315D/A330V/N361D/A378V/N434Y) Fc fragment (other) DKTHTCPPCPAPELLGGPSVFLFPPKPKDTLMISRTPIVTCVVVDVSHEDPEVKFNWYVDGVEVHNAKTKPREEQYNSTYRVVSVLTVLHQDWLDGKEYKCKVSNKALPVPIEKTISKAKGQPREPQVYTLPPSRDELTKDQVSLTCLVKGFYPSDIVVEWESNGQPENNYKTTPPVLDSDGSFFLYSKLTVDKSRWQQGNVFSCSVMHEALHYHYTQKSLSLSPGK | 30.2 | 2820
7 | A3A-105D (G316D/K326E/A378V) Fc fragment (other) DKTHTCPPCPAPELLGGPSVFLFPPKPKDTLMISRTPEVTCVVVDVSHEDPEVKFNWYVDGVEVHNAKTKPREEQYNSTYRVVSVLTVLHQDWLNDKEYKCKVSNEALPAPIEKTISKAKGQPREPQVYTLPPSRDELTKNQVSLTCLVKGFYPSDIVVEWESNGQPENNYKTTPPVLDSDGSFFLYSKLTVDKSRWQQGNVFSCSVMHEALHNHYTQKSLSLSPGK | 231 | 1210
8 | T5A-74K (K290Y/N315D/A330V/N361D/A378V/N434Y) Fc fragment (other) DKTHTCPPCPAPELLGGPSVFLFPPKPKDTLMISRTPEVTCVVVDVSHEDPEVKFNWYVDGVEVHNAKTYPREEQYNSTYRVVSVLTVLHQDWLDGKEYKCKVSNKALPVPIEKTISKAKGQPREPQVYTLPPSRDELTKDQVSLTCLVKGFYPSDIVVEWESNGQPENNYKTTPPVLDSDGSFFLYSKLTVDKSRWQQGNVFSCSVMHEALHYHYTQKSLSLSPGK | 16.6 | 3180

— patent publication US20180355034A1 (published 2018)
